Experimental data: patent publication US20230002480A1

What was measured:
Assay in all cases: cell-based or functional assay
[1] = target: HIV-1 Env of pseudovirus 1054_07_TC4_1499 (HIV-1)
[2] = target: HIV-1 Env of pseudovirus 249M B10 (HIV-1)
[3] = target: HIV-1 Env of pseudovirus 6540.v4.c1 (HIV-1)
[4] = target: HIV-1 Env of pseudovirus 62357_14_D3_4589 (HIV-1)
[5] = target: HIV-1 Env of pseudovirus CNE53 (HIV-1)
[6] = target: HIV-1 Env of pseudovirus Ce1086_B2 (HIV-1)
[7] = target: HIV-1 Env of pseudovirus CNE52 (HIV-1)
[8] = target: HIV-1 Env of pseudovirus CNE17 (HIV-1)
[9] = target: HIV-1 Env of pseudovirus BF1266.431a (HIV-1)
[10] = target: HIV-1 Env of pseudovirus 89-F1_2_25 (HIV-1)
[11] = target: HIV-1 Env of pseudovirus Du172.17 (HIV-1)
[12] = target: HIV-1 Env of pseudovirus TRO.11 (HIV-1)
[13] = target: HIV-1 Env of pseudovirus CNE19 (HIV-1)
[14] = target: HIV-1 Env of pseudovirus CNE30 (HIV-1)
[15] = target: HIV-1 Env of pseudovirus HIV-16845-2.22 (HIV-1)
[16] = target: HIV-1 Env of pseudovirus CNE20 (HIV-1)
[17] = target: HIV-1 Env of pseudovirus Q842.d12 (HIV-1)
[18] = target: HIV-1 Env of pseudovirus 6535.3 (HIV-1)
[19] = target: HIV-1 Env of pseudovirus AC10.0.29 (HIV-1)
[20] = target: HIV-1 Env of pseudovirus 6480.v4.c25 (HIV-1)
[21] = target: HIV-1 Env of pseudovirus ZM247v1(Rev-) (HIV-1)
[22] = target: HIV-1 Env of pseudovirus CAP45.2.00.G3 (HIV-1)
[23] = target: HIV-1 Env of pseudovirus Q461.e2 (HIV-1)
[24] = target: HIV-1 Env of pseudovirus 6244_13_B5_4576 (HIV-1)
[25] = target: HIV-1 Env of pseudovirus 3301.v1.c24 (HIV-1)
[26] = target: HIV-1 Env of pseudovirus CAP210.2.00.E8 (HIV-1)
[27] = target: HIV-1 Env of pseudovirus C4118.c09 (HIV-1)
[28] = target: HIV-1 Env of pseudovirus 6041.v3.c23 (HIV-1)
[29] = target: HIV-1 Env of pseudovirus ZM135M.PL10a (HIV-1)
[30] = target: HIV-1 Env of pseudovirus BJOX025000.01.1 (HIV-1)
[31] = target: HIV-1 Env of pseudovirus WEAU_d15_410_787 (HIV-1)
[32] = target: HIV-1 Env of pseudovirus BJOX015000.11.5 (HIV-1)
[33] = target: HIV-1 Env of pseudovirus T255-34 (HIV-1)
[34] = target: HIV-1 Env of pseudovirus CNE58 (HIV-1)
[35] = target: HIV-1 Env of pseudovirus P0402_c2_11 (HIV-1)

8ANC195 (antibody)
neutralization IC50 [1]: 1.02 µg/mL | neutralization IC80 [1]: 6.75 µg/mL | neutralization IC50 [2]: > 50 µg/mL | neutralization IC80 [2]: > 50 µg/mL | IC50, titer in TZM.bl cells [3]: > 50 µg/mL | IC80, titer in TZM.bl cells [3]: > 50 µg/mL | neutralization IC50 [4]: > 50 µg/mL | neutralization IC80 [4]: > 50 µg/mL | neutralization IC50 [5]: > 50 µg/mL | neutralization IC80 [5]: > 50 µg/mL | neutralization IC50 [6]: 4.42 µg/mL | neutralization IC80 [6]: 19.1 µg/mL | neutralization IC50 [7]: 5.59 µg/mL | neutralization IC80 [7]: 43.1 µg/mL | neutralization IC50 [8]: 2.59 µg/mL | neutralization IC80 [8]: 11.1 µg/mL | neutralization IC50 [9]: > 50 µg/mL | neutralization IC80 [9]: > 50 µg/mL | IC50, titer in TZM.bl cells [10]: > 50 µg/mL | IC80, titer in TZM.bl cells [10]: > 50 µg/mL | neutralization IC50 [11]: > 30 µg/mL | neutralization IC80 [11]: > 30 µg/mL | neutralization IC50 [12]: 0.18 µg/mL | neutralization IC80 [12]: 0.89 µg/mL | neutralization IC50 [13]: 0.29 µg/mL | neutralization IC80 [13]: 1.73 µg/mL | neutralization IC50 [14]: 7.52 µg/mL | neutralization IC80 [14]: 40.5 µg/mL | neutralization IC50 [15]: 3.3 µg/mL | neutralization IC80 [15]: 20.1 µg/mL | neutralization IC50 [16]: 0.5 µg/mL | neutralization IC80 [16]: 3.19 µg/mL | neutralization IC50 [17]: > 30 µg/mL | neutralization IC80 [17]: > 30 µg/mL | neutralization IC50 [18]: 0.2 µg/mL | neutralization IC80 [18]: 0.91 µg/mL | neutralization IC50 [19]: 0.88 µg/mL | neutralization IC80 [19]: 7 µg/mL | IC50, titer in TZM.bl cells [20]: 0.16 µg/mL | IC80, titer in TZM.bl cells [20]: 1.13 µg/mL | neutralization IC50 [21]: 3.41 µg/mL | neutralization IC80 [21]: 25.1 µg/mL | neutralization IC50 [22]: 28.3 µg/mL | neutralization IC80 [22]: > 50 µg/mL | neutralization IC50 [23]: 0.63 µg/mL | neutralization IC80 [23]: 2.51 µg/mL | neutralization IC50 [24]: > 50 µg/mL | neutralization IC80 [24]: > 50 µg/mL | IC50, titer in TZM.bl cells [25]: > 50 µg/mL | IC80, titer in TZM.bl cells [25]: > 50 µg/mL | neutralization IC50 [26]: > 50 µg/mL | neutralization IC80 [26]: > 50 µg/mL | IC50, titer in TZM.bl cells [27]: 0.2 µg/mL | IC80, titer in TZM.bl cells [27]: 0.71 µg/mL | IC50, titer in TZM.bl cells [28]: > 50 µg/mL | IC80, titer in TZM.bl cells [28]: > 50 µg/mL | neutralization IC50 [29]: > 50 µg/mL | neutralization IC80 [29]: > 50 µg/mL | IC50, titer in TZM.bl cells [30]: 4.96 µg/mL | IC80, titer in TZM.bl cells [30]: > 50 µg/mL | neutralization IC50 [31]: > 50 µg/mL | neutralization IC80 [31]: > 50 µg/mL | IC50, titer in TZM.bl cells [32]: 0.97 µg/mL | IC80, titer in TZM.bl cells [32]: 4.3 µg/mL | IC50, titer in TZM.bl cells [33]: 0.54 µg/mL | IC80, titer in TZM.bl cells [33]: 8.09 µg/mL | neutralization IC50 [34]: > 50 µg/mL | neutralization IC80 [34]: > 50 µg/mL | IC50, titer in TZM.bl cells [35]: 0.62 µg/mL | IC80, titer in TZM.bl cells [35]: 6.35 µg/mL
